According to patent US20220033512A1 (University of California, published 2022):

Key:
[1] = target: T1, human ENPP1, full length, over-expressed on HEK cells (human, UniProt P22413 1-925); test: flow cytometry (mean fluorescence intensity) on HEK cells over-expressing full length ENPP1, varying mAb concentrations, fitted in Graph Pad Prism
T1 construct: whole, on cells
T1 sequence (looked up): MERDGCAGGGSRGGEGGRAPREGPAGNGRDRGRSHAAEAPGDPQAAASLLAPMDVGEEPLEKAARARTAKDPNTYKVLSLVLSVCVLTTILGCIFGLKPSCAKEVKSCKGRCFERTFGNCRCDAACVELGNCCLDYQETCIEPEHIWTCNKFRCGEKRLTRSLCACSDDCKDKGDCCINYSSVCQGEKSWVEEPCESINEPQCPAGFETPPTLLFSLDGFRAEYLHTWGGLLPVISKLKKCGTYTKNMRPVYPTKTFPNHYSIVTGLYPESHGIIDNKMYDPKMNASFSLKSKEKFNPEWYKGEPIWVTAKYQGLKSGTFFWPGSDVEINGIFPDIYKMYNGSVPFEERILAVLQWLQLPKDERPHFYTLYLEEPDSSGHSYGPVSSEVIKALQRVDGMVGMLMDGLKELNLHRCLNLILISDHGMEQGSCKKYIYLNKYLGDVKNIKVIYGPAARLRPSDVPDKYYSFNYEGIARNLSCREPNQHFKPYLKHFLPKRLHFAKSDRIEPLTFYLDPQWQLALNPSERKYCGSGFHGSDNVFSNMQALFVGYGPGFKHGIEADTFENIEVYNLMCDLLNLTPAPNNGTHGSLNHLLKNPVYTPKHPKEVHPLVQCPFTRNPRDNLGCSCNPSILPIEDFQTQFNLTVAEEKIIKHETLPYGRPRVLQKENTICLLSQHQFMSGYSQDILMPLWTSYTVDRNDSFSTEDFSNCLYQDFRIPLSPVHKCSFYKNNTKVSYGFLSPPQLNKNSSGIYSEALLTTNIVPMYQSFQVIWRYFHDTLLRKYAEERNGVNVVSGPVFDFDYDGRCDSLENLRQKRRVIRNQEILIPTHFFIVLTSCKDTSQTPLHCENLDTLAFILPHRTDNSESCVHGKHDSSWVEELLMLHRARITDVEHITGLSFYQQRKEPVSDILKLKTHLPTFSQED

[2] = target: T1, human ENPP1, full length, …; test: flow cytometry (mean fluorescence intensity) on HEK cells over-expressing full length human ENPP1

- Kd [1]: 3.52 nM
- EC50 (read off the curve) [2]: ~4 nM
B1: 12-J-4 ENPP1 monoclonal antibody (antibody, V domains shown)
VH: EVMLVESGGGLVKPGGSLKLSCVASGFTFSSYTMSWVRQTPEKRLEWVATISGGGGNTYYPDSVKGRFTISRDNAKNTLYLQMSSLRSEDTALYYCARRHYGSSPYAMDYWGQGTSVTVSS
VL: DIQMTQTTSSLSASLGDRVTISCRASQDISNYLNWYQQKPDGTVKLLIYHKTRLHSGVPSRFSGSGSGTDYSLTISNLEQEDIATYFCQQGNMLPWTFGGGTKLEIK
notes: The antibody is a recombinant IgG1kappa made in a CHO cell line, from a hybridoma raised against human recombinant ENPP1; Heavy chain about 48 kD, light chain about 24 kD; also called ENPP1 mAb; ENPP1mAb
